How the values were obtained:
[1] = target: Streptavidin-PE (Streptomyces avidinii, UniProt P22629); assay: yeast
[2] = target: GAPDH (human, UniProt P04406); assay: yeast
[3] = target: T1, TrkB (human, UniProt Q16620); assay: yeast
[4] = target: T1, TrkB; assay: yeast; remark: listed apart in the source
[5] = target: T2, TrkA/Fc (human, UniProt P04629); assay: yeast
T2 chain: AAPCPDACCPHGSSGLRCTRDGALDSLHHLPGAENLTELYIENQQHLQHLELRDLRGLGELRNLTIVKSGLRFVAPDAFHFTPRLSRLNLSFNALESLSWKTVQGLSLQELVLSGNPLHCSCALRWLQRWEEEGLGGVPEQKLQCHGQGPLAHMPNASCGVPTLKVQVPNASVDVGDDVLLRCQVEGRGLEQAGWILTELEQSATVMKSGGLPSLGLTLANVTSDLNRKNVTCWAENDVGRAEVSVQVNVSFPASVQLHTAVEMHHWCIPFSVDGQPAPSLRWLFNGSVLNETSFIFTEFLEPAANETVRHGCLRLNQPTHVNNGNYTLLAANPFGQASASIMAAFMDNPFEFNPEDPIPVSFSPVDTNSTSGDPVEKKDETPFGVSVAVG

[6] = target: TrkC/Fc (human, UniProt Q16288); assay: yeast
Chain of TrkC/Fc (Q16288 32-429): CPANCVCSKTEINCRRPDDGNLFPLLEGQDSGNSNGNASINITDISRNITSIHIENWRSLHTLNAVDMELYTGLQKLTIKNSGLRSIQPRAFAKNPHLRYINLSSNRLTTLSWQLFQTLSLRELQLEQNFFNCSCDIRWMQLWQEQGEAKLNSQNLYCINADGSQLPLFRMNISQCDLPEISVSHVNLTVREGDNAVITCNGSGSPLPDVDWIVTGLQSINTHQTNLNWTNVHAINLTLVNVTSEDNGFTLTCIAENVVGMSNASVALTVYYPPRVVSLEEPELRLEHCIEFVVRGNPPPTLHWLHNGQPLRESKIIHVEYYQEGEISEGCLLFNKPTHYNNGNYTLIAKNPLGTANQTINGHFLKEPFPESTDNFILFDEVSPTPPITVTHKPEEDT

[7] = target: T1, TrkB; assay: competition, solution phase
[8] = target: T1, TrkB; assay: FACS, soluble GFAb on TrkB-loaded beads
[9] = target: T1, TrkB; assay: yeast; remark: listed apart in the source

Chain of Streptavidin-PE (P22629 37-163): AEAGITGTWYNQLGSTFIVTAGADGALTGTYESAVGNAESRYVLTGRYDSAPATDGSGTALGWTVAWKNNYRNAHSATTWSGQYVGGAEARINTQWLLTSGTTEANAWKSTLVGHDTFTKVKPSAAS
T1 sequence (Q16620 32-430): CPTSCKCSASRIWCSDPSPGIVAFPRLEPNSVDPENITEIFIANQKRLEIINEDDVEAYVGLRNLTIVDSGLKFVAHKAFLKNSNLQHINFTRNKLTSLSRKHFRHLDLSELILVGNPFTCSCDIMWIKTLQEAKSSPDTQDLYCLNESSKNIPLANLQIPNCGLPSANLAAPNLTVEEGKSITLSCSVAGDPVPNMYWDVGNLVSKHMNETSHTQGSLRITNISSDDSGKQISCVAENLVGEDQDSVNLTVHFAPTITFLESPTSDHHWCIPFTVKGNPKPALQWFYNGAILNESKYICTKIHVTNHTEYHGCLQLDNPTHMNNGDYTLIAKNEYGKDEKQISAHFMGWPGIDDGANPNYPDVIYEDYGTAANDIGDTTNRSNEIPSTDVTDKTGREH
Chain of GAPDH (P04406 2-335): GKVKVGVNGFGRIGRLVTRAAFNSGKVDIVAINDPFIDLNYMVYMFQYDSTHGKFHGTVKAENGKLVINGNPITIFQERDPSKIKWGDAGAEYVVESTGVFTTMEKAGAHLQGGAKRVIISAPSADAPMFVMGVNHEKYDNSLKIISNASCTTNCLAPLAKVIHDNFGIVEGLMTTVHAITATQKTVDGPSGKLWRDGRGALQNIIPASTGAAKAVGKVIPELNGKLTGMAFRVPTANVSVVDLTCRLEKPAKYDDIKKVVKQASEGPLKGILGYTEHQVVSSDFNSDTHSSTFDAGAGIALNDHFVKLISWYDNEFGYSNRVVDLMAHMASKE

B1: GFAb 2.7 (designed binder)
chain 1: not shown
chain 2: VFSSLRYHV
chain 3: LRMDDTNP
modifications: conjugate with phycoerythrin
- Kd [1]: 140 nM

B2: GFAb G4 (designed binder)
chain 1: not shown
chain 2: RGVSKSFLL
chain 3: QGITKGYK
- Kd [2]: > 500 nM

B3: GFAb G7 (designed binder)
chain 1: not shown
chain 2: NVIYPFLYA
chain 3: RVTKTKHK
- Kd [2]: > 500 nM

B4: GFAb T3 (designed binder)
chain 1: not shown
chain 2: VINPFTVRS
chain 3: NAWVVHRR
- Kd [3]: 3.2 nM
- Kd [4]: 2 nM
- binding result [5]: no binding
- binding result [6]: no binding
- Kd [7]: ~10 nM
- Kd [8]: 34 nM

B5: GFAb 2.17 (designed binder)
chain 1: not shown
chain 2: KARMRLFLM
chain 3: EYGDTLLS
modifications: conjugate with phycoerythrin
- Kd [1]: 110 nM

B6: GFAb G6 (designed binder)
chain 1: not shown
chain 2: RVSRFLLTT
chain 3: KSRIISSQ
- Kd [2]: 18 nM

B7: GFAb G8 (designed binder)
chain 1: not shown
chain 2: SHCLFRKCY
chain 3: ARSIRMKV
- Kd [2]: > 500 nM

B8: T3 172-173 loop only (designed binder)
chain 1: not shown
chain 2: LKQHFWSTPRTTS
chain 3: NAWVVHRR
- Kd [4]: 300 nM

B9: T3 102-103 loop only (designed binder)
chain 1: not shown
chain 2: VINPFTVRS
chain 3: SRERDYRLDYTR
- Kd [4]: 19 nM

B10: GFAb 1.3 (designed binder)
chain 1: not shown
chain 2: AISRSFFST
chain 3: IRNLKYTN
modifications: conjugate with phycoerythrin
- Kd [1]: 70 nM

B11: 20-5-8 scaffold (designed binder)
chain 1: not shown
chain 2: LKQHFWSTPRTTS
chain 3: SRERDYRLDYTR
- binding result [9]: no binding
